Key:
Test in all cases: One-hybrid system: PR activation domains fused to Gal4 DBD, G5-Luc reporter and western blot in SHM cells
Assay type in all cases: cell-based
activation domains of PR [1] = target: T1, activation domains of PR (Homo sapiens, UniProt P06401)
T1 construct: expressed in transfected cells; host or cells: SHM (Syrian hamster myocyte) cells
T1 sequence (P06401 556-933): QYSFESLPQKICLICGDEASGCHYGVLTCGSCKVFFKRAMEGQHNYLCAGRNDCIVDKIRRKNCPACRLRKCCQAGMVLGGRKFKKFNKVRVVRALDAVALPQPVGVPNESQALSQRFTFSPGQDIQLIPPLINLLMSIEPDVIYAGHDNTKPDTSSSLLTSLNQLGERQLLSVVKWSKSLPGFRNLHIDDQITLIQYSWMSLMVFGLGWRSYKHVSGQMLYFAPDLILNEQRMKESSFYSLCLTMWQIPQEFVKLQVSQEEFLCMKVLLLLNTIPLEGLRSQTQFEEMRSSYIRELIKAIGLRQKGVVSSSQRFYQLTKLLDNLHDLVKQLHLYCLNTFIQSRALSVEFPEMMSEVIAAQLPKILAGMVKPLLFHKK
Experimental: (§1) FIG. 6 A-F. Inhibition of PR activation domains by PSF involves different mechanisms. Segments containing individual activation domains of PR were fused to Gal4 DNA binding domain in pM vector and cotransfected with or without increasing amounts of His-PSF, together with G5 luciferase reporter vector in SHM cells. Progesterone (10 nM) was added to cells transfected with segments containing PR hormone binding domain (HBD). Luciferase activity was measured 30 hours after transfection and normalized to β-galatosidase acitvity. Data shown are the mean of three separate experiments performed in triplicate±S.E. Whole cell lysate from each transfection was western blotted with anti-Gal4 DNA binding domain (DBD) antibody (Santa Cruz) and anti-His tag antibody H-15 (Santa Cruz). Note: the empty vector pSG5 was added to the DNA mixture to ensure that the amounts of SV40 promoter in all the transfection assays are equal.
(§2) For immunoprecipitation of the endogenous PR and PSF, T47D cells cultured in 150 mm dishes were lysed in 800 μl NETN buffer containing 150 mM NaCl plus protease inhibitor cocktail. Cell lysate were then incubated with 5 μg of PR or PSF, or control mouse IgG at 4° C. overnight, followed by the addition of 30 μl of protein A/G PLUS-agarose beads (Santa Cruz) for another two hours at 4° C. Resins were washed with NETN containing 250 mM NaCl and eluted with 1×Laemmli buffer. The eluted proteins along with the whole cell extract were western blotted by PR or PSF antibody. • GST pulldown assay: GST pulldown assay was performed as previously described (20). GST and its fusion proteins were first immobilized to glutathione-Sepharose 4B affinity matrix. The matrix was then incubated at 4° C. overnight with rabbit reticulocyte lysate (Promega) containing PR or His-PSF transcribed and translated in presence of ^35S methionine. The matrix was washed three times with cold NETN buffer before adding 1 ×Laemmli buffer to elute associated proteins. The eluted proteins were separated on 10% SDS-PAGE gel. Gels were treated with Enhancer (NEN, Boston, US) dried and analyzed by autoradiography. • Cell culture and transient transfection: SHM cells and 293T cells were maintained in DMEM plus 5% FCS (Sigma) as described before (22). For experiments involving steroid exposure, the medium was substituted with phenol red free DMEM containing 5% charcoal-treated fetal bovine serum (Hyclone, Utah, USA). Transfection was performed according to manufacturers protocol (Fementas). Cells were seeded at a density to achieve 60-80% confluency the following day. The DNA and transfection reagent were mixed and added to the medium. Cell lysates were collected at least 30 hours after transfection. For luciferase assay, cells were collected in 200 μl of lysis buffer (Promega) of which 10μl was used for the luciferase and β-Gal activity assays respectively. Luciferase activity was determined by using the luciferin reagent (Promega) according to manufacture's protocol. Transfection efficiency was normalized to β-galactosidase activity. For western blots, cell lysates were collected in NETN buffer plus protease inhibitor cocktail. About 30 μg of protein extract was separated on SDS gel electrophoresis followed by western blotting with antibodies of interest. • Electrophoretic Mobility Shift Assay: PRDBD was synthesized in rabbit reticulocyte by using the TNT coupled in vitro transcription-translation system (Promega) with the vector pcDNA3 PRDBD. Full-length PR protein extract was obtained by transiently transfecting 293T cells with Flag-PRB vector. Cells were treated with 10^−8 M progesterone and nuclear fraction was extracted by the NE-PER Nuclear and Cytoplasmic Extraction Reagents Kit (Pierce). The nuclear fraction containing PRs was confirmed by western blot with the PR antibody AB-52 and used in gel shift assay. […]

activation domains of PR [2] = target: T2, activation domains of PR (Homo sapiens, UniProt P06401); remark: listed apart in the source
T2 construct: expressed in transfected cells; host or cells: SHM (Syrian hamster myocyte) cells
T2 sequence (P06401 1-164): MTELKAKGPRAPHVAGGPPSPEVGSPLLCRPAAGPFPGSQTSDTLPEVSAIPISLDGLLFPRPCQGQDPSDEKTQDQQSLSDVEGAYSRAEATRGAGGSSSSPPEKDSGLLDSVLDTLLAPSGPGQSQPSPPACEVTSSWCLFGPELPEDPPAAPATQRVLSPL
Experimental: as §1, §2

activation domains of PR [3] = target: T3, activation domains of PR (Homo sapiens, UniProt P06401); conditions: PR650-933 (only the AF2 domain)
T3 construct: expressed in transfected cells; host or cells: SHM (Syrian hamster myocyte) cells
T3 sequence (P06401 650-933): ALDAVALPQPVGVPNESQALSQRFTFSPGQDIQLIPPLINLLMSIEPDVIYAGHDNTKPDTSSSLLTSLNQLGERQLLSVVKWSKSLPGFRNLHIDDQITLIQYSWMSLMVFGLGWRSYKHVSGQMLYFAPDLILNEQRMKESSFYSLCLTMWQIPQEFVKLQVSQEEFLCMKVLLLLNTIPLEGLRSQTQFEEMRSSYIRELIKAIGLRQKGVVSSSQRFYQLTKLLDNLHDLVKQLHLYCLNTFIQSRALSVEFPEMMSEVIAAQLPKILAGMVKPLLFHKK
Experimental: as §1, §2

activation domains of PR [4] = target: T4, activation domains of PR (Homo sapiens, UniProt P06401); remark: listed apart in the source
T4 construct: expressed in transfected cells; host or cells: SHM (Syrian hamster myocyte) cells
T4 sequence (P06401 456-650): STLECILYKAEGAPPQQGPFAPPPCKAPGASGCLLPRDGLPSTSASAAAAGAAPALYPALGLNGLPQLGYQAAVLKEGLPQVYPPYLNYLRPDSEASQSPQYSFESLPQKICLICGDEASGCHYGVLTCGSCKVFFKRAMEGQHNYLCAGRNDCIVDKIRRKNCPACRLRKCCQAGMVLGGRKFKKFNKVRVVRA
Experimental: as §1, §2

activation domains of PR [5] = target: T5, activation domains of PR (Homo sapiens, UniProt P06401); conditions: PR456-556 (AF1 domain)
T5 construct: expressed in transfected cells; host or cells: SHM (Syrian hamster myocyte) cells
T5 sequence (P06401 456-556): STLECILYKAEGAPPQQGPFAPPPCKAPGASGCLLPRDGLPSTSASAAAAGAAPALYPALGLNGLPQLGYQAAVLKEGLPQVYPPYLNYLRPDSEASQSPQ
Experimental: as §1, §2

B1: polypyrimidine tract binding protein-associated splicing factor (protein)
chain: MSRDRFRSRGGGGGGFHRRGGGGGRGGLHDFRSPPPGMGLNQNRGPMGPGPGQSGPKPPIPPPPPHQQQQQPPPQQPPPQQPPPHQPPPHPQPHQQQQPPPPPQDSSKPVVAQGPGPAPGVGSAPPASSSAPPATPPTSGAPPGSGPGPTPTPPPAVTSAPPGAPPPTPPSSGVPTTPPQAGGPPPPPAAVPGPGPGPKQGPGPGGPKGGKMPGGPKPGGGPGLSTPGGHPKPPHRGGGEPRGGRQHHPPYHQQHHQGPPPGGPGGRSEEKISDSEGFKANLSLLRRPGEKTYTQRCRLFVGNLPADITEDEFKRLFAKYGEPGEVFINKGKGFGFIKLESRALAEIAKAELDDTPMRGRQLRVRFATHAAALSVRNLSPYVSNELLEEAFSQFGPIERAVVIVDDRGRSTGKGIVEFASKPAARKAFERCSEGVFLLTTTPRPVIVEPLEQLDDEDGLPEKLAQKNPMYQKERETPPRFAQHGTFEYEYSQRWKSLDEMEKQQREQVEKNMKDAKDKLESEMEDAYHEHQANLLRQDLMRRQEELRRMEELHNQEMQKRKEMQLRQEEERRRREEEMMIRQREMEEQMRRQREESYSRMGYMDPRERDMRMGGGGAMNMGDPYGSGGQKFPPLGGGGGIGYEANPGVPPATMSGSMMGSDMRTERFGQGGAGPVGGQGPRGMGPGTPAGYGRGREEYEGPNKKPRF
notes: expressed from transfected His-PSF vector or in vitro translated
Activation domains of PR [1]; PR556-933 (DBD and AF2 domain), 10 nM progesterone
  transactivation of PR556-933: did inhibit transactivation
Activation domains of PR [1]; PR556-933, western blot
  protein level of PR556-933: without any reduction
Activation domains of PR [2]; PR1-164 (AF3), increasing amounts of PSF
  luciferase activity of pM PR1-164: significant dose-dependent reduction in luciferase activity
Activation domains of PR [2]; PR1-164, western blot
  pM PR1-164 protein: loss of pM PR1-164 protein
Activation domains of PR [3]
  effect on PR650-933: no effect
Activation domains of PR [4]; PR456-650 (AF1 domain and DBD)
  transactivation of PR456-650: inhibited transactivation
Activation domains of PR [4]; PR456-650, western blot
  protein of PR456-650: enhanced degradation
Activation domains of PR [5]
  effect on PR456-556: no effect

Reference: patent US20070286806A1, “Methods and Compositions for Modulating a Steroid Receptor” (Mount Sinai Hospital, priority 2004, published 2007)
